Measurements: patent US12702694B2, “Methods for identification, assessment, prevention, and treatment of metabolic disorders using SLIT2” (Dana-Farber Cancer Institute, Inc., priority 2015, dated 2026)

Experiments:
Assay type in all cases: in vivo, Mus musculus
[1] = system: diet-induced obese (DIO) mice; assay: Adipose gene and UCP1 protein expression after adenovirus injection in diet-induced obese (DIO) mice
Protocol: All animal experiments were approved by the Institutional Animal Care and Use Committee of the Beth Israel Deaconess Medical Center. Mice (Mus musculus) were obtained from Jackson Laboratories, maintained in 12 hour light-lark cycles (6 a.m.-6 p.m.) at 22° C., and fed a standard irradiated rodent chow diet or a high-fat diet (60% fat) for 12-20 weeks. AAV-8 viruses (Penn Vector Core) and adenoviruses (Vector Biolabs or constructed in-house) were injected at a titer of 10^11 or 10^10 per mouse, respectively. All experiments were done with male mice. The aP2-PRDM16 transgenic mice have been previously described in Seale et al. (2011) J. Clin. Invest. 121:96-105. PRDM16-floxed mice were crossed with adiponectin-Cre and were maintained on a pure C57BL/6 background (Cohen et al. (2014) Cell 156:304-316). The Slit2-floxed mice have been described previously in Rama et al. (2015) Nat. Med. 21:483-491. Lean C57BL/6 mice were obtained from Jackson Laboratories and were […].
RNA was extracted from cultured cells or frozen tissue samples using TRIzol®, purified with QIAGEN RNeasy® minicolumns. Normalized RNA was reversed transcribed using a high-capacity cDNA reverse transcription lot (Applied Biosystems) and cDNA was analyzed by qRT-CPR. Relative mRNA levels were calculated using the comparative CT method and normalized to cyclophilin […]. All primers used are listed with their sequences in Table 3 as follows: […]
For Western blotting, homogenized tissues, whole cell lysates, or concentrated serum free conditioned medium were lysed in RIPA buffer containing protease inhibitor cocktail (Thermo Scientific) and phosphatase inhibitor cocktail (Thermo Scientific), separated by SDS-PAGE and transferred to Immobilon-P® membranes (Millipore). For Western blotting of plasma samples, 1 μl of plasma was prepared containing 2× sample buffer (Invitrogen) with reducing agent, boiled and analyzed using Western blot against V5, FLAG, or the indicated antibody. V5-antibody was from Life Technologies and anti-Flag M2-HRP (A8592) from Sigma Aldrich. Anti-Slit2 antibody used was from Abcam (Abcam ab134166). Phospho-PKA Substrate, phospho-PKC Substrate, phospho-ERK1/2, total ERK, phospho-AKT, total AKT, phospho-AMPK, total AMPK, phospho-ATGL, ATGL, phospho-EGFR and EGFR were from Cell Signaling. Protein array was from R&D Systems (Proteome Profiler Mouse Phospho-RTK Array Kit, ARY014). Silverstain (SilverQuest™ Silver Staining Kit, LC6070) was purchased from Thermo Fisher.

[2] = system: inguinal white fat tissue and brown fat tissue; assay: Tissue respiration (Clark electrode) of minced adipose tissue; conditions: day 7 after adenovirus injection
Protocol: Tissue respiration was performed using a Clark electrode (Stathkelvin Instruments). Freshly isolated tissues were dissected from mice treated with LacZ or Slit2-C adenovirus for 7 days. Equally sized pieces of tissue were minced and placed in respiration buffer containing PBS supplemented with 2% (w/v) bovine serum albumin, 1% (w/v) glucose, and 1 mM Na pyruvate. Oxygen (O2) consumption was normalized to tissue weight. Cellular oxygen consumption rates were determined using an XF24 Extracellular Flux Analyzer (Seahorse Biosciences). Primary brown fat adipocytes were seeded at 15,000 cells/well, differentiation was induced the following day as previously described, and the cells were analyzed on day 5. On the day of analysis, the cells were washed once with Seahorse respiration buffer (8.3 g/l DMEM, 1.8 g/l NaCl, 1 mM pyruvate, 20 mM glucose, pen/strep), placed in 0.5 ml Seahorse respiration buffer, and incubated in a C02-free incubator for 1 hr. Port injection solutions were prepared as follows: oligomycin (1 μM final concentration), norepinephrine (1 μM final concentration), FCCP (0.2 μM final concentration), and rotenone (3 μM final concentration). Each cycle consisted of the following: mix 4 min, wait 0 min, and measure 2 min. Data are presented as S.E.M.

[3] = Plasma cholesterol, triglycerides and insulin; conditions: 7 days post-injection
Protocol: Glucose tolerance tests were performed on mice 7 days post-injection with adenovirus. […] Animals were fasted overnight and then received intraperitoneal glucose at […]. Energy expenditure was analyzed using a Comprehensive Lab Animal Monitoring System (Columbus Instruments). Cold exposure and thermoneutrality experiments were performed in Balb/c mice at 4° C. or 30° C., respectively. Total levels of cholesterol, free fatty acids, triglycerides and insulin were measured at the Core Facility at Joslin Diabetes Center.

B1: Slit2-C: ~50 kDa C-terminal cleavage fragment of Slit2 beginning at TSP (SEQ ID NO: 22); adenovirally expressed or purified FLAG-tagged protein (protein, listed as Homo sapiens)
chain: TSPCDNFDCQNGAQCIIRINEPICQCLPGYLGEKCEKLVSVNFVNKESYLQIPSAKVRPQTNITLQIATDEDSGILLYKGDKDHIAVELYRGRVRASYDTGSHPASAIYSVETINDGNFHIVELLTLDSSLSLSVDGGSPKVITNLSKQSTLNFDSPLYVGGMPGKNNVASLRQAPGQNGTSFHGCIRNLYINSELQDFRKMPMQTGILPGCEPCHKKVCAHGMCQPSSQSGFTCECEEGWMGPLCDQRTNDPCLGNKCVHGTCLPINAFSYSCKCLEGHGGVLCDEEEDLFNPCQMIKCKHGKCRLSGVGQPYCECNSGFTGDSCDREISCRGERIRDYYQKQQGYAACQTTKKVSRLECRGGCAGGQCCGPLRSKRRKYSFECTDGSSFVDEVEKVVKCGCARCAS
modifications: FLAG tag
notes: adenovirally expressed or purified FLAG-tagged protein
- Fas in inguinal and brown fat ([1]; 16-week DIO mice, 7 days post-injection, FIGS. 7A-7B): reduction
- Hsl and Atgl expression ([1]; 16-week DIO mice, FIGS. 7A-7B): unchanged
- Resistin in brown fat ([1]; FIG. 7C): unchanged
- brown fat levels of Leptin ([1]; FIG. 7C): marked reduction
- induction of Ucp1 protein expression in BAT ([1]; Western blot quantification relative tubulin, DIO mice 7 days post-injection, FIG. 7D): 1.3 fold
- O2 consumption of inguinal tissue ([2]; did not reach significance): elevated
- O2 consumption of BAT ([2]; reached significance): elevated
- total plasma cholesterol ([3]; FIG. 9G): not affected
- plasma triglycerides ([3]; FIG. 9H): not affected
- non-fasting insulin levels ([3]; FIG. 9I): not affected
